Earlier results on one substance are cited in paper PMC3332193.

The series has as its target EGFR (Homo sapiens) (UniProt P00533).

One may read the Kd as a measure of binding affinity in units of concentration. As for EGF (from UniProt P01133), the Kd was less than 12 nM.
